One block for each binder: values may come before it.
Legend:
human CLL-1 on cells [1] = target: T1, human CLL-1 on cells (human, UniProt Q5QGZ9 1-265); assay: cell-based or functional assay
T1 sequence (looked up): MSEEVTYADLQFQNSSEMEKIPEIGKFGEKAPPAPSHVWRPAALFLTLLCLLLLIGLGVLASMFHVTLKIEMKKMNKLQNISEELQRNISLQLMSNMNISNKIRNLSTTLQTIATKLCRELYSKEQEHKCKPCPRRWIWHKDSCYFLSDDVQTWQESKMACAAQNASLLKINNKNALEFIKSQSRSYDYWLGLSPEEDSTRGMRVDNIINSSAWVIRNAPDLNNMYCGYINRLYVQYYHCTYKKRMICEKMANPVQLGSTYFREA

human CLL-1 on cells [2] = target: T1, human CLL-1 on cells; assay: cell-based or functional assay; remark: listed apart in the source
human CLL-1 on cells [3] = target: T1, human CLL-1 on cells; assay: cell-based or functional assay; remark: listed apart in the source
human CLL-1 on cells [4] = target: T1, human CLL-1 on cells; assay: cell-based or functional assay; remark: listed apart in the source
human CLL-1 on cells [5] = target: T1, human CLL-1 on cells; assay: FACS (PE-anti-human IgG), HL-60 cells
Procedure: (§1) To evaluate the tumor antigen binding property of the bispecific antibody of Example 3, the binding ability of CLL1 targeting portions of 33C2/CD3-R2 and 33C2/CD3-R3 to CLL1 expressed in mammalian cells were analyzed by using FACS.
(§2) Briefly, CLL1 positive cells (U937 and HL60) were incubated with 33C2/CD3-R2 and 33C2/CD3-R3 antibodies. After washing with a FACS buffer (1% BSA in PBS), the PE-anti-human IgG antibodies were added to each well and incubated at 4° C. for 60 min. The MFI (Median Fluorescence Intensity) of PE (phycoerythrin) was evaluated by FACS Calibur. BsAb mock/CD3, which has an anti-CD3 antigen-binding fragment at one arm, and no antigen-binding fragment at another arm, was used as a control group.

human CLL-1 on cells [6] = target: T1, human CLL-1 on cells; assay: FACS (PE-anti-human IgG), U937 cells
Procedure: as §1, §2

T-cell activation (NFAT reporter effector cells) with HL-60, EC50 (human CLL-1 on cells [1]): 40 pM
T-cell activation (NFAT reporter effector cells) with U937, EC50 (human CLL-1 on cells [1]): 16 pM
specific lysis of HL-60, PBMC donor ABL06, EC50 (human CLL-1 on cells [2]): 5.07 pM
specific lysis of HL-60, PBMC donor ABL09, EC50 (human CLL-1 on cells [2]): 1.26 pM
specific lysis of HL-60, PBMC donor ABL10, EC50 (human CLL-1 on cells [2]): 0.97 pM
specific lysis of HL-60, PBMC donor ABL15, EC50 (human CLL-1 on cells [2]): 3.04 pM
specific lysis of HL-60, PBMC donor ABL16, EC50 (human CLL-1 on cells [2]): 7.01 pM
specific lysis of HL-60, PBMC donor ABL17, EC50 (human CLL-1 on cells [2]): 16.6 pM
specific lysis of HL-60, PBMC donor ABL18, EC50 (human CLL-1 on cells [2]): 9.43 pM
specific lysis of HL-60, PBMC donor ABL19, EC50 (human CLL-1 on cells [2]): 8.18 pM
specific lysis of U937, PBMC donor ABL06, EC50 (human CLL-1 on cells [2]): 0.57 pM
specific lysis of U937, PBMC donor ABL09, EC50 (human CLL-1 on cells [2]): 0.08 pM
specific lysis of U937, PBMC donor ABL10, EC50 (human CLL-1 on cells [2]): 0.15 pM
specific lysis of U937, PBMC donor ABL15, EC50 (human CLL-1 on cells [2]): 0.04 pM
specific lysis of U937, PBMC donor ABL16, EC50 (human CLL-1 on cells [2]): 0.03 pM
specific lysis of U937, PBMC donor ABL17, EC50 (human CLL-1 on cells [2]): 1.69 pM
specific lysis of U937, PBMC donor ABL18, EC50 (human CLL-1 on cells [2]): 3.05 pM
specific lysis of U937, PBMC donor ABL19, EC50 (human CLL-1 on cells [2]): 0.39 pM
CD25 on CD4 T cells, U937 targets, EC50 (human CLL-1 on cells [3]): 1.23 pM
CD25 on CD8 T cells, U937 targets, EC50 (human CLL-1 on cells [3]): 1.1 pM
CD69 on CD4 T cells, U937 targets, EC50 (human CLL-1 on cells [3]): 0.61 pM
CD69 on CD8 T cells, U937 targets, EC50 (human CLL-1 on cells [3]): ~0.5 pM
U937 cell lysis, EC50 (human CLL-1 on cells [3]): 0.15 pM
CD25 on CD4 T cells, HL60 targets, EC50 (human CLL-1 on cells [4]): 1.94 pM
CD25 on CD8 T cells, HL60 targets, EC50 (human CLL-1 on cells [4]): 2.09 pM
CD69 on CD4 T cells, HL60 targets, EC50 (human CLL-1 on cells [4]): 0.8 pM
CD69 on CD8 T cells, HL60 targets, EC50 (human CLL-1 on cells [4]): 0.57 pM
U937 cell lysis (so in the source); Table 21 is the HL60 table by paragraph 356), EC50 (human CLL-1 on cells [4]): 0.97 pM
EC50 (human CLL-1 on cells [5]): 90 pM
EC50 (human CLL-1 on cells [6]): 250 pM
B1: 33C2/CD3-R3 (bispecific antibody, human IgG1, kappa, N297A)
heavy 1: not shown
heavy 2: QVQLVQSGAEVKKPGASVKVSCKASGYSFTGYAMNWVRQAPGQRLEWIGLINPYNGGAMYNQKFKGRATLTVDTSASTAYMELSSLRSEDTAVYYCARDYRYEGHLDYWGQGTLVTVSSASTKGPSVFPLAPSSKSTSGGTAALGCLVKDYFPEPVTVSWNSGALTSGVHTFPAVLQSSGLYSLSSVVTVPSSSLGTQTYICNVNHKPSNTKVDKKVEPKSCDKTHTCPPCPAPELLGGPSVFLFPPKPKDTLMISRTPEVTCVVVDVSHEDPEVKFNWYVDGVEVHNAKTKPREEQYASTYRVVSVLTVLHQDWLNGKEYKCKVSNKALPAPIEKTISKAKGQPREPQVCTLPPSREEMTKNQVSLSCAVKGFYPSDIAVEWESNGQPENNYKTTPPVLDSDGSFFLVSKLTVDKSRWQQGNVFSCSVMHEALHNHYTQKSLSLSPGK
light 1: EIVLTQSPATLSLSPGERATLSCSATSSVSYMHWYQQKPGQAPRRWIYDTSKLASGIPARFSGSGSGTSYTLTISSLEPEDFAVYYCQQWSSDSPTFGQGTKLEIKRTVAAPSVFIFPPSDEQLKSGTASVVCLLNNFYPREAKVQWKVDNALQSGNSQESVTEQDSKDSTYSLSSTLTLSKADYEKHKVYACEVTHQGLSSPVTKSFNRGEC
light 2: DIVMTQSPDSLAVSLGERATINCKSSQSLLNSRTRKNYLAWYQQKPGQPPKLLIYWASTRQSGVPDRFSGSGSGTDFTLTISSLQAEDVAVYYCTQSHTLRTFGGGTKVEIKPDIQNPDPAVYQLRDSKSSDKSVCLFTDFDSQTQVSQSKDSDVYITDKCVLDMRSMDFKSNSAVAWSQKSDFACANAFQNSIIPEDTFFPSPESS
notes: As 33C2/CD3-R2 but with the (G4S)3 linker; also called anti-CLL-1/anti-CD3 bispecific antibody with (G4S)3 linker

T-cell activation (NFAT reporter effector cells) with HL-60, EC50 (human CLL-1 on cells [1]): 30 pM
T-cell activation (NFAT reporter effector cells) with U937, EC50 (human CLL-1 on cells [1]): 16 pM
specific lysis of HL-60, PBMC donor ABL06, EC50 (human CLL-1 on cells [2]): 4.42 pM
specific lysis of HL-60, PBMC donor ABL09, EC50 (human CLL-1 on cells [2]): 1.27 pM
specific lysis of HL-60, PBMC donor ABL10, EC50 (human CLL-1 on cells [2]): 0.86 pM
specific lysis of HL-60, PBMC donor ABL15, EC50 (human CLL-1 on cells [2]): 3.16 pM
specific lysis of HL-60, PBMC donor ABL16, EC50 (human CLL-1 on cells [2]): 5.14 pM
specific lysis of HL-60, PBMC donor ABL17, EC50 (human CLL-1 on cells [2]): 5.85 pM
specific lysis of HL-60, PBMC donor ABL18, EC50 (human CLL-1 on cells [2]): 3.97 pM
specific lysis of HL-60, PBMC donor ABL19, EC50 (human CLL-1 on cells [2]): 9.09 pM
specific lysis of U937, PBMC donor ABL06, EC50 (human CLL-1 on cells [2]): 0.54 pM
specific lysis of U937, PBMC donor ABL09, EC50 (human CLL-1 on cells [2]): 0.13 pM
specific lysis of U937, PBMC donor ABL10, EC50 (human CLL-1 on cells [2]): 0.05 pM
specific lysis of U937, PBMC donor ABL15, EC50 (human CLL-1 on cells [2]): 0.16 pM
specific lysis of U937, PBMC donor ABL16, EC50 (human CLL-1 on cells [2]): 0.05 pM
specific lysis of U937, PBMC donor ABL17, EC50 (human CLL-1 on cells [2]): 1.1 pM
specific lysis of U937, PBMC donor ABL18, EC50 (human CLL-1 on cells [2]): 1.63 pM
specific lysis of U937, PBMC donor ABL19, EC50 (human CLL-1 on cells [2]): 0.32 pM
CD25 on CD4 T cells, U937 targets, EC50 (human CLL-1 on cells [3]): 0.39 pM
CD25 on CD8 T cells, U937 targets, EC50 (human CLL-1 on cells [3]): 0.3 pM
CD69 on CD4 T cells, U937 targets, EC50 (human CLL-1 on cells [3]): 0.21 pM
CD69 on CD8 T cells, U937 targets, EC50 (human CLL-1 on cells [3]): 0.14 pM
U937 cell lysis, EC50 (human CLL-1 on cells [3]): 0.05 pM
CD25 on CD4 T cells, HL60 targets, EC50 (human CLL-1 on cells [4]): 1.15 pM
CD25 on CD8 T cells, HL60 targets, EC50 (human CLL-1 on cells [4]): 1.09 pM
CD69 on CD4 T cells, HL60 targets, EC50 (human CLL-1 on cells [4]): 0.54 pM
CD69 on CD8 T cells, HL60 targets, EC50 (human CLL-1 on cells [4]): 0.36 pM
U937 cell lysis (so in the source); Table 21 is the HL60 table by paragraph 356), EC50 (human CLL-1 on cells [4]): 0.86 pM
EC50 (human CLL-1 on cells [5]): 90 pM
EC50 (human CLL-1 on cells [6]): 230 pM
B2: 33C2/CD3-R2 (bispecific antibody, human IgG1, kappa, N297A)
heavy 1: not shown
heavy 2: B1 heavy 2
light 1: B1 light 1
light 2: B1 light 2
notes: WuXiBody format, 2+1: Heavy Chain-1 = CLL1 Fab heavy, linker, CD3 heavy (TCR constant region), Fc knob; Heavy Chain-2 = CLL1 Fab heavy, Fc hole; Two CLL1 light chains follow from the two CLL1 Fab heavy parts; also called anti-CLL-1/anti-CD3 bispecific antibody with (G4S)2 linker
